{"source": "paper PMC6444176", "about": "(Biochemistry and Biophysics Reports, 2019)", "molecular_target": "the molecule itself", "assay": "SEC"}
{"protein": "His-MBP-VWA (hCLCA1 von Willebrand factor type A domain construct, amino acids 240-544) (domain or fragment, human, UniProt A8K7I4 240-544, looked up) AQHVDSIVEFCTEQNHNKEAPNKQNQKCNLRSTWEVIRDSEDFKKTTPMTTQPPNPTFSLLQIGQRIVCLVLDKSGSMATGNRLNRLNQAGQLFLLQTVELGSWVGMVTFDSAAHVQNELIQINSGSDRDTLAKRLPAAASGGTSICSGLRSAFTVIRKKYPTDGSEIVLLTDGEDNTISGCFNEVKQSGAIIHTVALGPSAAQELEELSKMTGGLQTYASDQVQNNGLIDAFGALSSGNGAVSQRSIQLESKGLTLQNSQWMNGTVIVDSTVGKDTLFLITWTMQPPQILLWDPSGQKQGGFVV", "values": [{"measurement": "stoichiometry N", "value": 2}]}
